14 sequences from the DeepSol protein solubility set can be followed below.

This data set in a line: soluble on expression in E. coli; label from the status in PepcDB or PDB records.
Regarding “MGSDKIHHHHHHVAVKAYLKRELRNLQSLAPAVRTAKFSLYNFGTRSAGLFVEPEFKLLAHLRPVKLAIDIGGNWGQSVLALQRYAAPERIVTFEPNPELYRRLSARFRSDPSIQVENVGLGDAAGQFDLHIPLYRNFVYDGLASLNKDEAAQWLNPRTMARFDPSKLTIQSHTVRVVKLDDYNLVPDIIKIDVQGLEDAVARGGIKTIDRAKPAMIVEAPSASFVQMMADCGLRPYTWNGTRLVDAADGSNVMFLSDEKLRKLVKVRPKPEKPE”, the “soluble on expression in E. coli” value was “not soluble”. Next, “AVVITDRQNRIIKVNNEFTRLSGYTFEDVKGKQPSIFASGLHKVEFYMQMWKALQDNGVWEGEVINKRKDGESITEILRIQSIRDEDNVIQFYVASFVDIS”: “not soluble”.

As for “MGHHHHHHHHHHSSGHIDDDDLHMDMHSGTFNPQDFAWQGLTLTPAAAIHIRELVAKQPGMVGVRLGVKQTGCAGFGYVLDSVSEPDKDDLLFEHDGAKLFVPLQAMPFIDGTEVDFVREGLNQIFKFHNPKAQNECGCGESFGV”, the “soluble on expression in E. coli” value was “soluble”. To “MYHLKKILEVKQVNKTYSMDGNANYHVLKNIDLEVYEGEFVSVMGPSGSGKSTLLYNISGMDQMSSGSVKIDSKELSCMKEEELAKLRLTEIGFIFQQSNLLRNLNLFDNIILSAYLAKCESKKIVNKRALELMENMGISDIASHYITEASGGQLQRVSICRALINNPNIIFADEPTGALNLKSTEEVMQILLNINRDGTTIMLVTHDVKVAAKTERILFMADGEIVSEIQLGKLRNDDLKAREEKLLNWLAVLGF” belongs “not soluble”. To “GGGGGGMVNLQRARTPIHRVGFARPPLHLAIPHPATTTPCAMSAESLVLALVLLALCGAVMLRWISQRHAHDSAVGDKALTHKGRLRLSQNASGSAAGRCGSDDGNDSDQGGVDDDNGGAVGRRRRGAGGVLRRRRPQERGGNARRGGSDGDENSYDGDDAGGIPETDANGVKLTRLQRKKLAKEREREERRQAQEAALEAQRQRMDVNELRDAEAALREEELKAAEEAALQQLRRDKKKAEDEEYAKWVSHIGVEERGELGDEERERQTRMQSFLLDRAAQVQARARRSAAGAKSSPSEEECIHVLILQTAARDLKVSVEELVSTIEQLSQVDKVHGVFDDRGKYVFIAPEQFPLLAQFIRLRGRVSVQEFTRECNRVVMQS” belongs “soluble”; to “MGSDKIHHHHHHMNLRRDALQILKETSRTFYIPISLLPPGLQEAVASAYLCMRAIDEIEDHPEIDNATKAKLLRSISLTLQAGVDGFAVEAFFTGFNGYENTLEEVTLRIREWLLLAPETIAPRIWDATAAMSDRMAYWSERNWKIYTESDLDRYTFGVAGAVGLLLSDLWTWYDGTQTNRTQAIGFGRGLQAVNILRNHTEDLRRGVDFFPEGWSAENMQEYARRNLALAEAYTKGLPTGPALDFCQIPLTLANGTLDALANGKEKLSRSDVFALIEQIISVNMKAS”, “not soluble”; to “MKIEAISTTIVDVPTRRPLQMSFTTVHKQSYVIVQVKAGGLVGIGEGGSVGGPTWGSESAETIKVIIDNYLAPLLVGKDASNLSQARVLMDRAVTGNLSAKAAIDIALHDLKARALNLSIADLIGGTMRTSIPIAWTLASGDTARDIDSALEMIETRRHNRFKVKLGARTPAQDLEHIRSIVKAVGDRASVRVDVNQGWDEQTASIWIPRLEEAGVELVEQPVPRANFGALRRLTEQNGVAILADESLSSLSSAFELARDHAVDAFSLKLCNMGGIANTLKVAAVAEAAGISSYGGTMLDSTVGTAAALHVYATLPSLPYGCELIGPWVLGDRLTQQDLEIKDFEVHLPLGSGLGVDLDHDKVRHYTRAA”, “soluble”. In the case of “MGSDKIHHHHHHMKTLLGIIAGKAAQSILTKLGRGSTYPGRLALACDKDILKDLSKDYDIVVVTGTNGKTLTTALTVGILKEAFGEIITNPSGANMITGITSTFLAAKKGKSERQIAVLEIDEASLPRITTYLKPSLFVYTNIFRDQMDRYGEIYTTYQMIVDGARNAPKATILANGDSPIFSSKDIVNPVQYYGFDTAKHAPQLAHYNTEGILCPKCEHILQYRLNTYANLGDFVCLNCQFQRPTLDYQLTELTAITHQSSEFVIDGQNYKINVGGLYNIYNALAAVSVAEFFGVSPEKIKAGFNKSKAVFGRQETFTVGDKSCTLILIKNPVGASQALEMIQLADYPFSLSVLLNANYADGIDTSWIWDANFELITQMPITEINAGGVRHSEIARRLRVTGFDDTKIKQAEKLEQIIETIEKQEAKHAYILATYTAMLEFRSLLADRHVVEKEMI”, the “soluble on expression in E. coli” value is reported as “not soluble”.

Consider “MTTQTIDSAPHATWFVGASYGGTDDQMPRFLAEGIWENGYDDKLLEVVRSMRPGERIAIKSSYTRKHGLPFDSRGRAVSVMGIKAVGTITENLNDGKRVKVDWAKVEPVREWYFYTHRATIWRVLPGEWMNDALIAFAFDGKPQDVDRFRNEPFWRERYGTTSPEKQRFEWTDFYEAVAEKLLAHADDRTPLIEGIHEIASRVPGLTYLQDKFPDGTSGPLRDICPFTTMGTFNRSMTDANRKTLAGELAKLLGVTVPVPPSFEGIPVLNNQRSWFFAYADKRGAGDIDALWKVFVAASKMVDGDQLDTRDAFIRAYDEATQVWGVAWNLSTGLYWAHPWEFLTLDSQSRHYINKRLGLNVAISGQQGPCDGRAYLKLLDDLRSRFGEDGYPVHSFPDLSLASWMYKDPVDEPVPAGDIGTNAGAEQETEGEVREAFQVAAPIVPYSVEDILKDGCFLERAEIDRLLDRLRTKKNLILQGPPGTGKTWLAKRLAFALMGQKDDSKVRAVQFHPNLSYEDFVRGWRPTGEGKLSLADGVFMEAIKAASKDPSSKFVVVIEEINRGNPAQIFGELLTLLEAGKRTPNEALELCYPDADGKRRPVHIPENLYVVGTMNIADRSLALVDLALRRRFAFVGLEPRLGQVWRDWVVKECAVDPGLVADIERRIAELNDQIAADARLGKQFRIGHSYVTPAHRLEAGDTKKWFLQVVETEIGPLLDEYWFDAPDEAQKAIARLTQGWLEHHHHHH”, for which the “soluble on expression in E. coli” value is “soluble”.

Turning to “MRRRWYNNGGFQTLRMLEESSSEVTSSSALGLPPAMVMSPESLASPEYGGLELWGYDDGITYSMAQSLGTCTMEQQQPQPQQQPQQTQPLPSMPLPMPPTTPKSENESMSSGREELSPASSVNGCSTDGEARRQKKGPAPRQQEELCLVCGDRASGYHYNALTCEGCKGFFRRSVTKNAVYICKFGHACEMDMYMRRKCQECRLKKCLAVGMRPECVVPENQCAMKRKEKKAQREKDKLPVSTTTVDDHMPPIMQCDPPPPEAARIHEVVPRFLNEKLMEQNRLKNVPPLTANQKSLIARLVWYQEGYEQPSEEDLKRVTQTWQSDEDDEDSDMPFRQITEMTILTVQLIVEFAKGLPGFAKISQSDQITLLKACSSEVMMLRVARRYDAATDSVLFANNQAYTRDNYRKAGMAYVIEDLLHFCRCMYSMMMDNVHYALLTAIVIFSDRPGLEQPLLVEEIQRYYLNTLRVYILNQNSASPRCAVIFGKILGILTEIRTLGMQNSNMCISLKLKNRKLPPFLEEIWDVADVATTATPVAAEAPAPLAPAPPARPPATV”, the “soluble on expression in E. coli” value is reported as “soluble”.

For “FNDWYVSARANFTYNRNKKLYDDKPTPIWPYQSEAGFAYRQQRGLIALGLFESEEDIANSPKQNFGNVRPGDIKYKDINGDNVIDAYDKVAIGYTDVPEINYGFGISLGWKGFDASLFMQGVGNVTRIIGGDALYGASDNIERLGQIYADVAEKRWTTSNPNPNATYPRLSMSKVENNLQPSTYWQRNMSFLRLKNVEIGYTLPKHIYKRLGMSSIRVYAQGVNLLTFSKFKLWDPELDSNYGNIYPQMRTITLGLNLNF”, the “soluble on expression in E. coli” value is reported as “not soluble”. To “MALDVKKYPFIKSLDDELKKYGGGITLTDLLLNSTTLIDQAKDRIQKTKSGDELPHYVSYNEPVLVFYTTLLSLAILNDVKLIRRYAYAEAKQFRSLLHTENEENLLEISKLLDLKINRCDPIKFYLEKKRRIIQKEFCVHFIDYLKYTKDLKEDWKLSGQILHKGYVYLDKNQLIGLIAESIKSKIVEMIRPLNLKEIPEKLKSLIERRGI” belongs “soluble”. Next, “MNVTFETTICAWDEKIPALLIRLVNTLLFCRTEEELRQSINKLRETAELDEFFTYGYGSHHFWCNQRISKGSMQFIQSRLFIATF”: “not soluble”; “GPLGSMIVFVRFNSSHGFPVEVDSDTSIFQLKEVVAKRQGVPADQLRVIFAGKELRNDWTVQNCDLDQQSIVHIVQRPWRK”: “soluble”.
